B1: Holliday junction (HJ) (structured_DNA)
DNA 1: CTAGAACAGCATGTCCTAGCAAGCCAGAATTC
DNA 2: GAATTCTGGCTTGCTAGGACATCTTTGCCCAC
DNA 3: GTGGGCAAAGATGTCCTAGCAATGTAATCGTC
DNA 4: GACGATTACATTGCTAGGACATGCTGTTCTAG
B2: forked duplex (dsDNA)
DNA 1: TTTTTTTTTTAGGGCATGCACTAC
DNA 2: GTAGTGCATGCCCTAATTTTTTTT

Assays:
GST-BLM RQC S1121A = GST-BLM RQC S1121A (human, UniProt P54132 1068-1209, S1121A); assay: EMSA; FP: 10 mM Tris-HCl pH 7.5, 25 mM NaCl, 1 mM DTT, 100 pM DNA, 25 C; EMSA: 10 mM Tris-HCl pH 8.0, 2 mM DTT, 1 mM EDTA, 20% glycerol, 0.2 uM DNA, 4 C, 30 min, 7.5%
Chain of GST-BLM RQC S1121A (P54132 1068-1209 S1121A): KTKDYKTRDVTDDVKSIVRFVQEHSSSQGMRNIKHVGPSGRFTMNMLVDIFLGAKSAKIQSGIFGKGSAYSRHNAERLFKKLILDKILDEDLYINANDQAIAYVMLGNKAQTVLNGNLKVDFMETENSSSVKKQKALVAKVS

GST-BLM RQC K1125A = GST-BLM RQC K1125A (human, UniProt P54132 1068-1209, K1125A); assay: as above
Chain of GST-BLM RQC K1125A (P54132 1068-1209 K1125A): as the sequence (P54132 1068-1209 S1121A) above, with A54S, K58A counted along it

GST-BLM RQC R1139A = GST-BLM RQC R1139A (human, UniProt P54132 1068-1209, R1139A); assay: as above
Chain of GST-BLM RQC R1139A (P54132 1068-1209 R1139A): as the sequence (P54132 1068-1209 S1121A) above, with A54S, R72A counted along it

GST-BLM RQC = GST-BLM RQC (human, UniProt P54132 1068-1209); assay: EMSA; 1, 5, 10 uM protein; FP: 10 mM Tris-HCl pH 7.5, 25 mM NaCl, 1 mM DTT, 100 pM DNA, 25 C; EMSA: 10 mM Tris-HCl pH 8.0, 2 mM DTT, 1 mM EDTA, 20% glycerol, 0.2 uM DNA, 4 C, 30 min, 7.5%
Chain of GST-BLM RQC (P54132 1068-1209): as the sequence (P54132 1068-1209 S1121A) above, with A54S counted along it

BLM RQC (GST-free) = BLM RQC (GST-free) (human, UniProt P54132 1068-1209); assay: fluorescence polarization; FP: 10 mM Tris-HCl pH 7.5, 25 mM NaCl, 1 mM DTT, 100 pM DNA, 25 C; EMSA: 10 mM Tris-HCl pH 8.0, 2 mM DTT, 1 mM EDTA, 20% glycerol, 0.2 uM DNA, 4 C, 30 min, 7.5%
Chain of BLM RQC (GST-free) (P54132 1068-1209): as the sequence (P54132 1068-1209 S1121A) above, with A54S counted along it

Row | Binder | binding signal (GST-BLM RQC S1121A) | binding signal (GST-BLM RQC K1125A) | binding signal (GST-BLM RQC R1139A) | binding result (GST-BLM RQC) | Kd (BLM RQC (GST-free))
1 | B1 | ~10 % loss of binding vs wild type | ~50 % loss of binding vs wild type | ~70 % loss of binding vs wild type | binds | 
2 | B2 |  |  |  |  | ~700 nM

Reference: PMC6505963
